Experiment [1] concerns the target T1, EpCAM (epithelial cell adhesion molecule) on human colorectal cancer cell lines SW480 and LoVo (human, UniProt P16422 24-314).
T1 construct: whole, on cells; also called cell-surface EpCAM
T1 sequence (looked up): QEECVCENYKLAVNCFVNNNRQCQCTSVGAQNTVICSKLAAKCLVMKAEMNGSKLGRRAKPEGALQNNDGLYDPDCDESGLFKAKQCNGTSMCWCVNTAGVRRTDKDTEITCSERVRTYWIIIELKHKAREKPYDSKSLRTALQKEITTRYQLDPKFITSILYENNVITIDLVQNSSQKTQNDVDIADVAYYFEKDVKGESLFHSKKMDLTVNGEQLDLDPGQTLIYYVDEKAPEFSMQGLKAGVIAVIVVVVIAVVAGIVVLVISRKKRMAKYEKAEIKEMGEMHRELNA
Description: flow cytometry, 500 nM antibody, Alexa488 anti-human Fc. On the technique in general: Flow cytometry measures light scatter and fluorescence of single cells or particles in a stream.

Experiment [2] addresses T1, EpCAM (epithelial cell adhesion …). Description: flow cytometry on LoVo cells, 100 nM antibody, Alexa488 anti-human Fc.
Experiment [3] deals with T2, human neonatal Fc receptor (hFcRn) (human, UniProt P55899 24-297; P61769 21-119, limits assumed).
T2 construct: Immobilised on the CM5 chip, pH 6.0
As to the kind of experiment: SPR (Biacore 2000), FcRn immobilised, pH 6.0, antibody 2000-62.5 nM; pH 6.0.

The target in experiment [4] is T2, human neonatal Fc receptor (hFcRn). Description: SPR (Biacore 2000), FcRn immobilised, pH 6.0, antibody 2000-62.5 nM. Background: In SPR one partner is held on a chip, and binding of the other changes the refractive index at the surface.
Experiment [5] has the same target. As to the kind of experiment: SPR (Biacore 2000), FcRn immobilised, pH 6.0, antibody 200-6.25 nM.
The target in experiment [6] is T3, integrin αvβ3 on integrin αvβ3-expressing K562 cells (UniProt P06756 31-1048; P05106 27-788, limits assumed).
T3 construct: whole, on cells; also called integrin ανβ3
Description: flow cytometry, 500 nM antibody, Alexa488 anti-human Fc.

For experiment [7], the target named is T4, integrin αvβ5 on human colorectal cancer cell lines SW480 and LoVo (human, UniProt P06756 31-1048; P18084 24-799).
T4 construct: whole, on cells; also called integrin ανβ5
Described as above.

Where a chain is given by its changes, count along the chain named. Names and notes keep the numbering of the source.

B1: RT22-ep59 MG (antibody, human IgG1)
heavy: not shown
VL: EHLHCLGSLCWPMGSSSNDIQMTQSPSSLSASVGDRVTITCKSSQSLLNSRDGKNYLAWYQQKPGKAPKLLIYWASTRESGVPSRFSGSGSGTDFTLTISSLQPEDFATYFCQQYWYWMYTFGQGTKVEIKR
notes: also called epRas03 MG
For B1, the binding result in experiment [1] is recorded as “binds”.

B2: epRas23 MG (antibody, human IgG1)
heavy: not shown
VL: B1 VL
With B2, in experiment [2], the binding result is reported as “binds”.

B3: epRas13 (RT22 VH, IgG1 N434D, hT4-ep59 GSSG light chain) (antibody)
heavy: not shown
VL: EHLHCLGSLCWPGSSGDIQMTQSPSSLSASVGDRVTITCKSSQSLLNSRDGKNYLAWYQQKPGKAPKLLIYWASTRESGVPSRFSGSGSGTDFTLTISSLQPEDFATYFCQQYWYWMYTFGQGTKVEIKR
Usually Kd stands for the constant that tells how readily two partners part at equilibrium. Read a high Kd as weaker binding. As to B3, binding in experiment [3] was put at a Kd of 2700 nM.

B4: epRas83 (RT22 VH, IgG1 LALA-PG, N434D, hT4-ep59 GSSG light chain) (antibody)
heavy: not shown
VL: B3 VL
Consider B4, for which, in experiment [4], the Kd is 3.57 µM.

B5: epRas03 (RT22 VH, IgG1, hT4-ep59 GSSG light chain) (antibody)
heavy: not shown
VL: B3 VL
notes: Differs from epRas03 MG by the linker of the light chain
B5 came in with a Kd in experiment [5] of 148 nM.

B6: RT22-i38 MG (antibody, IgG1, V domains shown)
VH: EVQLVESGGGLVQPGGSLRLSCAASGFTFSDFSMSWVRQAPGKGLEWVSYISRTSHTTYYADSVKGRFTISRDNSKNTLYLQMNSLRAEDTAVYYCARGFKMDYWGQGTLVTVSS
VL: DLVMTQSPSSLSASVGDRVTITCKSSQSLLNSRTGKTYLAWYQQKPGKAPKLLIYWASTRESGVPSRFSGSGSGTDFTLTISSLQPEDFATYFCQQYWYWMYTFGQGTKVEIKR
notes: Intact IgG1,κ
On to B6, for which the binding result in experiment [6] and in experiment [7] was “binds” throughout.

B7: RT22-ep58 MG (antibody, IgG1, V domains shown)
VH: B6 VH
VL: B6 VL with L2I, V3Q
notes: Intact IgG1,κ
On to B7, for which the binding result in experiment [1] was “binds”.

B8: RT22-i39 MG (antibody, IgG1, V domains shown)
VH: B6 VH
VL: DGARYCRGDCFDGMGSSSNDLVMTQSPSSLSASVGDRVTITCKSSQSLLNSRDGKNYLAWYQQKPGKAPKLLIYWASTRESGVPSRFSGSGSGTDFTLTISSLQPEDFATYFCQQYWYWMYTFGQGTKVEIKR
notes: Intact IgG1,κ
Regarding B8, the binding result in experiment [6] and in experiment [7] was “binds” throughout.
